Test results from paper PMC5959800 (The international journal of biochemistry & cell biology, 2018).

Target: T1, Histidine-tagged AIMP1 (immobilised in SPR) (UniProt Q12904 1-312)
T1 sequence (looked up): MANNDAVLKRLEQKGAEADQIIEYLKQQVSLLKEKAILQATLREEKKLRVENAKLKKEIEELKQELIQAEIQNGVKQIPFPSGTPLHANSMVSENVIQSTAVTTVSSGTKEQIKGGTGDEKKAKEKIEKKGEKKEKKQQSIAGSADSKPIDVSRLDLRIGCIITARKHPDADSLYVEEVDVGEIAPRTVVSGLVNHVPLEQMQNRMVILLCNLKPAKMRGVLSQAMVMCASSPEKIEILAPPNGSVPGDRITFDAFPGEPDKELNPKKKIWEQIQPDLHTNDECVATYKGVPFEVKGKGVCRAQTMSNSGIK
Test: SPR

B1: His-tagged AIMP3 (natural protein, UniProt O43324 1-174, looked up)
chain: MAAAAELSLLEKSLGLSKGNKYSAQGERQIPVLQTNNGPSLTGLTTIAAHLVKQANKEYLLGSTAEEKAIVQQWLEYRVTQVDGHSSKNDIHTLLKDLNSYLEDKVYLTGYNFTLADILLYYGLHRFIVDLTVQEKEKYLNVSRWFCHIQHYPGIRQHLSSVVFIKNRLYTNSH
- Kd: 25.3 nM
